Results: patent publication US20150175708A1

Experiments:
[1] = target: EGFR on the cell surface of human tumor cell lines (human) (UniProt P00533); assay: cell-based or functional assay
[2] = target: MET on the cell surface of human tumor cell lines (human) (UniProt P08581); assay: cell-based or functional assay
MET on the cell surface of human tumor cell lines (human), sequence (P08581 25-1390): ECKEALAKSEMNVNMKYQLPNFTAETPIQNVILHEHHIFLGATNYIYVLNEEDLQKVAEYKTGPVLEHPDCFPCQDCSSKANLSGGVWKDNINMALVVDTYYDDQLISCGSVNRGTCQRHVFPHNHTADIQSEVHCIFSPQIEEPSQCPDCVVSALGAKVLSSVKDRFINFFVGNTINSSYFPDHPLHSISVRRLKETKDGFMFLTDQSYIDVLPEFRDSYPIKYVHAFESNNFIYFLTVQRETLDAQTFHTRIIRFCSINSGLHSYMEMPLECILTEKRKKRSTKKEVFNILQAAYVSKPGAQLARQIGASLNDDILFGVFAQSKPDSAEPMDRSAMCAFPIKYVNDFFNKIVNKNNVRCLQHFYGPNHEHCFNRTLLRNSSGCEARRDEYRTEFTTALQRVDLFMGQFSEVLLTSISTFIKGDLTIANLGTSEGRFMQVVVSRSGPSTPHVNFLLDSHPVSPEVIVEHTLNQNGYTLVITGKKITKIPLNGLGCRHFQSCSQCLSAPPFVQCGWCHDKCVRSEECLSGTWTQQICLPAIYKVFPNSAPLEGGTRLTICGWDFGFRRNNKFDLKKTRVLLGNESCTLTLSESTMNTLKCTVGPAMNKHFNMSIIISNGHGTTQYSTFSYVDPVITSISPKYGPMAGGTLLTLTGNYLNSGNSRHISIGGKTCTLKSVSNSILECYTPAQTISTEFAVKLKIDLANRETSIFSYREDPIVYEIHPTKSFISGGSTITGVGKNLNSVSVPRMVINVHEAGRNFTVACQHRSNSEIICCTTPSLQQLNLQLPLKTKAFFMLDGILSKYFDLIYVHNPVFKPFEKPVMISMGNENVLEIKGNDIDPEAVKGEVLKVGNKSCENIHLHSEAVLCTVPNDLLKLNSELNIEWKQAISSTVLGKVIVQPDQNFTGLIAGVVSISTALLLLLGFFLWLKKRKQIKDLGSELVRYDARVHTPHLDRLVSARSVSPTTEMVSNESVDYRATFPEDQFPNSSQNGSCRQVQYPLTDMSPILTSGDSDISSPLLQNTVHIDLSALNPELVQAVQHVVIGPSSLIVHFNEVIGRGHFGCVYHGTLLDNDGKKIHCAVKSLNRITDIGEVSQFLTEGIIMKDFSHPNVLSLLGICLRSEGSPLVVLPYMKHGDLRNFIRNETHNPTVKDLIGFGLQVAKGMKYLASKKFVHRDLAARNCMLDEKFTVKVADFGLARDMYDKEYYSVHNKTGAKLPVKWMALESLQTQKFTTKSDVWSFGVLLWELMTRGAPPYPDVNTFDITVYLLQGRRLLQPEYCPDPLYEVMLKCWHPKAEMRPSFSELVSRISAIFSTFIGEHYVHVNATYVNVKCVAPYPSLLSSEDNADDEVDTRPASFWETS

% cell surface EGFR remaining, H441 cells, antibody 50 nM; isotype control, reference for the % [1]: 100%
AVG of MFI (staining of cell surface EGFR), H441 cells, antibody 50 nM; isotype control, reference for the % [1]: 56.3 MFI
% cell surface MET remaining, H441 cells, antibody 50 nM; isotype control, reference for the % [2]: 100%
AVG of MFI (staining of cell surface MET), H441 cells, antibody 50 nM; isotype control, reference for the % [2]: 77.4 MFI
Substance: hIgG4 (antibody)
